Numbering of substitutions follows the chain as printed. Names may count otherwise.
B1: AsHPPDm-F372G-02: nucleotide sequence encoding Avena sativa HPPD with F372G; vector DBN11774 (nucleic acid)
DNA: ATGCCACCTACTCCAGCTACAGCTACTGGTGCTGCTGCTGCTGCCGTTACTCCTGAGCACGCTGCCAGGTCATTCCCCAGGGTGGTTCGCGTGAACCCCAGATCTGATAGGTTCCCAGTTCTGAGCTTCCACCATGTTGAGCTGTGGTGCGCTGATGCTGCTTCTGCTGCTGGCAGGTTCTCTTTCGCTCTTGGTGCTCCACTCGCTGCTAGATCTGATCTGTCTACAGGAAATAGCGCTCATGCCTCACTCCTGCTTCGCTCAGGTGCTTTGGCCTTCCTCTTCACCGCTCCATATGCTCCCCCACCTCAGGAGGCTGCTACTGCTGCTGCTACAGCCTCCATTCCAAGCTTCTCAGCTGATGCCGCTAGAACCTTCGCTGCTGCTCATGGACTTGCCGTGAGGTCTGTTGGTGTTCGCGTGGCTGATGCTGCTGAGGCTTTCAGAGTTTCCGTTGCCGGCGGAGCTAGGCCAGCTTTCGCTCCTGCTGATTTGGGACATGGTTTCGGCCTGGCTGAGGTTGAGCTTTACGGTGACGTGGTTCTCCGCTTCGTGTCTTACCCAGATGAGACTGACCTGCCTTTCCTTCCCGGCTTCGAGAGAGTTTCCTCTCCTGGTGCCGTGGATTACGGCCTGACAAGGTTCGACCACGTGGTTGGAAACGTTCCCGAGATGGCTCCAGTGATCGATTACATGAAGGGCTTCCTTGGATTCCATGAGTTCGCCGAGTTCACTGCTGAGGACGTGGGAACCACTGAGTCCGGTTTGAACTCTGTGGTTCTCGCCAACAATTCTGAGGCTGTTTTGCTCCCTCTGAATGAGCCTGTGCATGGAACCAAGAGGAGAAGCCAGATTCAAACTTACCTGGAGTACCACGGTGGCCCTGGAGTTCAGCATATCGCCCTTGCTTCTAATGATGTGTTGCGCACACTCAGAGAGATGCGCGCCAGAACCCCCATGGGAGGTTTCGAGTTCATGGCCCCACCACAGGCTAAGTACTACGAGGGCGTTAGAAGGATTGCTGGAGACGTGTTGAGCGAGGAGCAGATCAAGGAGTGCCAAGAGCTGGGTGTTCTTGTGGATAGGGATGACCAGGGCGTTCTGCTTCAAATTGGTACTAAGCCAGTGGGCGACCGCCCTACATTCTTCCTTGAGATGATTCAAAGAATCGGCTGCATGGAGAAGGATGAGGTTGGACAGGAGTACCAAAAGGGCGGATGCGGTGGCTTCGGAAAGGGTAACTTCAGCGAGTTGTTCAAGTCAATCGAGGACTACGAGAAGAGCCTCGAGGTGAAGCAGTCAGTGGTTGCCCAAAAGTCCTGA
modifications: AsHPPDm-F372G-02 Nucleotide Sequence
notes: vector DBN11774
B2: AsHPPDm-F372V-02: nucleotide sequence encoding Avena sativa HPPD with F372V; vector DBN11776 (nucleic acid)
DNA: B1 DNA with G1115T, T1116C
modifications: AsHPPDm-F372V-02 Nucleotide Sequence
notes: vector DBN11776
B3: AsHPPDm-F372G-F383W-02: nucleotide sequence encoding Avena sativa HPPD with F372G+F383W; vector DBN11775 (nucleic acid)
DNA: B1 DNA with T1148G, C1149G
modifications: AsHPPDm-F372G-F383W-02 Nucleotide Sequence
notes: vector DBN11775

test system: Arabidopsis thaliana T1 plants; assay: Isoxaflutole tolerance of transgenic Arabidopsis thaliana T1 plants (spray, bleached leaf area grade, damage score); assay type: in vivo; conditions: isoxaflutole 140 g ai/ha (2x field concentration); Arabidopsis thaliana T1 plants;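 as to Scores: Weighted damage index from 0 to 100 where higher means more damage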
Outline: (§1)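 Damage was assessed by bleaching grade (0 none; 1 <50%; 2 >50%; 3 100% of leaf area) one week after spraying. Sprays on 18-day-old T1 and wild-type plants used field-rate multiples: topramezone 25–200, isoxaflutole 35–280, mesotrione 52.5–420 g ai/ha.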

Molecule	Resistance evaluation	Scores
B1	Moderately	29
B2	Moderately	33
B3	Highly resistant	0

same assay, conditions: isoxaflutole 140 g ai/ha (2x field concentration); Arabidopsis thaliana T1 plants; 16 plants

Molecule	Grade 0 (classification and statistics of the grade of pesticide damage; number of plants)	Grade 1 (classification and statistics of the grade of pesticide damage; number of plants)	Grade 2 (classification and statistics of the grade of pesticide damage; number of plants)	Grade 3 (classification and statistics of the grade of pesticide damage; number of plants)
B1	6	7	2	1
B2	6	5	4	1
B3	16	0	0	0

same assay, conditions: isoxaflutole 280 g ai/ha (4x field concentration); Arabidopsis thaliana T1 plants

Molecule	Resistance evaluation	Scores
B1	Poorly resistant	67
B2	Poorly resistant	67
B3	Highly resistant	8

same assay, conditions: isoxaflutole 280 g ai/ha (4x field concentration); Arabidopsis thaliana T1 plants; 16 plants

Molecule	Grade 0 (classification and statistics of the grade of pesticide damage; number of plants)	Grade 1 (classification and statistics of the grade of pesticide damage; number of plants)	Grade 2 (classification and statistics of the grade of pesticide damage; number of plants)	Grade 3 (classification and statistics of the grade of pesticide damage; number of plants)
B1	0	0	16	0
B2	0	0	16	0
B3	12	4	0	0

test system: Arabidopsis thaliana T1 plants; assay: Topramezone tolerance of transgenic Arabidopsis thaliana T1 plants (spray, bleached leaf area grade, damage score); assay type: in vivo; conditions: topramezone 100 g ai/ha (4x field concentration); Arabidopsis thaliana T1 plants
Outline: as §1

Molecule	Resistance evaluation	Scores
B1	Highly resistant	0
B2	Highly resistant	0
B3	Highly resistant	0

same assay, conditions: topramezone 100 g ai/ha (4x field concentration); Arabidopsis thaliana T1 plants; 16 plants

Molecule	Grade 0 (classification and statistics of the grade of pesticide damage; number of plants)	Grade 1 (classification and statistics of the grade of pesticide damage; number of plants)	Grade 2 (classification and statistics of the grade of pesticide damage; number of plants)	Grade 3 (classification and statistics of the grade of pesticide damage; number of plants)
B1	16	0	0	0
B2	16	0	0	0
B3	16	0	0	0

same assay, conditions: topramezone 200 g ai/ha (8x field concentration); Arabidopsis thaliana T1 plants

Molecule	Resistance evaluation	Scores
B1	Highly resistant	0
B2	Highly resistant	0
B3	Highly resistant	0

same assay, conditions: topramezone 200 g ai/ha (8x field concentration); Arabidopsis thaliana T1 plants; 16 plants

Molecule	Grade 0 (classification and statistics of the grade of pesticide damage; number of plants)	Grade 1 (classification and statistics of the grade of pesticide damage; number of plants)	Grade 2 (classification and statistics of the grade of pesticide damage; number of plants)	Grade 3 (classification and statistics of the grade of pesticide damage; number of plants)
B1	16	0	0	0
B2	16	0	0	0
B3	16	0	0	0

same assay, conditions: topramezone at four-fold or eight-fold field concentration

Molecule	tolerance to topramezone (resistance class)
B1	highly-resistant
B2	highly-resistant
B3	highly-resistant

test system: Arabidopsis thaliana T1 plants; assay: Mesotrione tolerance of transgenic Arabidopsis thaliana T1 plants (spray, bleached leaf area grade, damage score); assay type: in vivo; parameters: Scores: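 damage score 0-100 computed as Σ(N×S)/(T×M)×100 over grades 0-3 with higher meaning more damage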; conditions: Table 9; mesotrione 210 g ai/ha (2×)
Outline: as §1

Molecule	Resistance evaluation
B1	Moderately
B2	Moderately
B3	Highly resistant

same assay, conditions: Table 9; mesotrione 210 g ai/ha (2×); number of plants at grade 0

Molecule	Classification and statistics of the grade of pesticide damage Grade 0
B1	5
B2	5
B3	16

same assay, conditions: Table 9; mesotrione 210 g ai/ha (2×); number of plants at grade 1

Molecule	Classification and statistics of the grade of pesticide damage Grade 1
B1	8
B2	7
B3	0

same assay, conditions: Table 9; mesotrione 210 g ai/ha (2×); number of plants at grade 2

Molecule	Classification and statistics of the grade of pesticide damage Grade 2
B1	2
B2	4
B3	0

same assay, conditions: Table 9; mesotrione 210 g ai/ha (2×); number of plants at grade 3

Molecule	Classification and statistics of the grade of pesticide damage Grade 3
B1	1
B2	0
B3	0

same assay, conditions: Table 9; mesotrione 210 g ai/ha (2×); pesticide damage score

Molecule	Scores
B1	31
B2	31
B3	0

same assay, conditions: Table 9; mesotrione 420 g ai/ha (4×)

Molecule	Resistance evaluation
B1	Poorly resistant
B2	Poorly resistant
B3	Highly resistant

same assay, conditions: Table 9; mesotrione 420 g ai/ha (4×); number of plants at grade 0

Molecule	Classification and statistics of the grade of pesticide damage Grade 0
B1	0
B2	0
B3	13

same assay, conditions: Table 9; mesotrione 420 g ai/ha (4×); number of plants at grade 1

Molecule	Classification and statistics of the grade of pesticide damage Grade 1
B1	8
B2	8
B3	3

same assay, conditions: Table 9; mesotrione 420 g ai/ha (4×); number of plants at grade 2

Molecule	Classification and statistics of the grade of pesticide damage Grade 2
B1	8
B2	7
B3	0

same assay, conditions: Table 9; mesotrione 420 g ai/ha (4×); number of plants at grade 3

Molecule	Classification and statistics of the grade of pesticide damage Grade 3
B1	0
B2	1
B3	0

same assay, conditions: Table 9; mesotrione 420 g ai/ha (4×); pesticide damage score

Molecule	Scores
B1	50
B2	52
B3	6

From patent publication US20250043302A1, “MUTATED HYDROXYPHENYLPYRUVATE DIOXYGENASE POLYPEPTIDE, AND CODING GENE AND USE THEREOF” (BEIJING DABEINONG BIOTECHNOLOGY CO., LTD., priority 2021, published 2025)
